Source: paper PMC7721647, “The Human RNA Helicase DDX21 Presents a Dimerization Interface Necessary for Helicase Activity” (iScience, 2020)

How the values were obtained:
DDX21ΔNC = target: T1, DDX21ΔNC (human, UniProt Q9NR30 186-710); test: fluorescence polarization; 50 mM KCl (Table S2 prints 36.7); FP: 50 mM Tris pH 7.5, 50 mM KCl, 5 mM MgCl2, no ATP; Hill-slope fit; temperature not given in the material; settings: protein: recombinant; chain copies: 2; label: 5'-FAM; G4
T1 sequence: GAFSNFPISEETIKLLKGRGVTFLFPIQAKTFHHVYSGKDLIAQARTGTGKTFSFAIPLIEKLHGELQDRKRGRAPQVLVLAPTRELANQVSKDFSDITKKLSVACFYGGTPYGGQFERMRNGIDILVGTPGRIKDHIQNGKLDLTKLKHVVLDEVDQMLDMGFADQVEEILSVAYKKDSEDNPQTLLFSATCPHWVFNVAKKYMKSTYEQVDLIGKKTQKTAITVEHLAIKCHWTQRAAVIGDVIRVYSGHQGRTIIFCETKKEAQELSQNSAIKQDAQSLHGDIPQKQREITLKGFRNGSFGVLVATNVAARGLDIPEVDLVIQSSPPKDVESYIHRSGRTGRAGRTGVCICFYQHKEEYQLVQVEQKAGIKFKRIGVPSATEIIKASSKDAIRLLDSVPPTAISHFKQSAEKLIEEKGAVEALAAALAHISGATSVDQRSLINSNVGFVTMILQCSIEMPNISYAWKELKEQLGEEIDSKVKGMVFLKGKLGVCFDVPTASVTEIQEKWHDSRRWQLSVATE

DDX21Core = target: T2, DDX21Core (human, UniProt Q9NR30 186-564); test: fluorescence polarization; 50 mM KCl; FP: 50 mM Tris pH 7.5, 50 mM KCl, 5 mM MgCl2, no ATP; Hill-slope fit; temperature not given in the material; settings: protein: recombinant; label: 5'-FAM; G4
T2 sequence: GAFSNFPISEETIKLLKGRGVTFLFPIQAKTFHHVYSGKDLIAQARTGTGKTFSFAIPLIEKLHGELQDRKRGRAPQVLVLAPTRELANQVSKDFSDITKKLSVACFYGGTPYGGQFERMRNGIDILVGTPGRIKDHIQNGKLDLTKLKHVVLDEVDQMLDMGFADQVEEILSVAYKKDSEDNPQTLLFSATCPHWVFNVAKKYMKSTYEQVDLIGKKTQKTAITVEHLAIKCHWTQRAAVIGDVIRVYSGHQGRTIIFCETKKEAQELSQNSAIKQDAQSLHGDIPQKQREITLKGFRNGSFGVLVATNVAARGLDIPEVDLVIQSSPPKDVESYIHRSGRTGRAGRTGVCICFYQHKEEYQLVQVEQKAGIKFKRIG

DDX21Fl monomer = target: T3, DDX21Fl monomer (human, UniProt Q9NR30 1-783, L611R;A612R;A613R;A614R;L615R;A616R); test: as above; settings: protein: recombinant; label: 5'-FAM; G4
T3 sequence: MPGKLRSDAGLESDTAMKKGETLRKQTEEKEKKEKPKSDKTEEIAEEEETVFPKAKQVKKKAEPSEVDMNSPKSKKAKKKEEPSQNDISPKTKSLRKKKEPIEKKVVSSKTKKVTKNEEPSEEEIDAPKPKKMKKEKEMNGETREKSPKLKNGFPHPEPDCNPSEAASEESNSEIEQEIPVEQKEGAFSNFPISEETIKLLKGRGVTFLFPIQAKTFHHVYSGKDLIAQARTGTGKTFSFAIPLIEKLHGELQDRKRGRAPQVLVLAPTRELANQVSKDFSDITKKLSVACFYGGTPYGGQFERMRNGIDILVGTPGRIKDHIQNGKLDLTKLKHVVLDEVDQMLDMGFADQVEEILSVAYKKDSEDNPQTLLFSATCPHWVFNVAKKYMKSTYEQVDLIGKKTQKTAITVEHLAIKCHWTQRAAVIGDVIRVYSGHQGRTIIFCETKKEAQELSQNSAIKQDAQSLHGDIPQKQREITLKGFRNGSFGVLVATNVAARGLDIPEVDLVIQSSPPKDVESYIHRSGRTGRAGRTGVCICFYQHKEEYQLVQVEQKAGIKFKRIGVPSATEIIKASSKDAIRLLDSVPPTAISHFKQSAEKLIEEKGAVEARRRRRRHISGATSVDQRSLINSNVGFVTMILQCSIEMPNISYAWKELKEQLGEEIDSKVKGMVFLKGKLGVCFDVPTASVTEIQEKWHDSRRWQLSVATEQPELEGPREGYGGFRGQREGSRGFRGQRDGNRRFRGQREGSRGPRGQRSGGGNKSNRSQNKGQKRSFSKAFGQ

DDX21ΔN = target: T4, DDX21ΔN (human, UniProt Q9NR30 186-783); test: as above; settings: protein: recombinant; chain copies: 2; label: 5'-FAM; G4
T4 sequence: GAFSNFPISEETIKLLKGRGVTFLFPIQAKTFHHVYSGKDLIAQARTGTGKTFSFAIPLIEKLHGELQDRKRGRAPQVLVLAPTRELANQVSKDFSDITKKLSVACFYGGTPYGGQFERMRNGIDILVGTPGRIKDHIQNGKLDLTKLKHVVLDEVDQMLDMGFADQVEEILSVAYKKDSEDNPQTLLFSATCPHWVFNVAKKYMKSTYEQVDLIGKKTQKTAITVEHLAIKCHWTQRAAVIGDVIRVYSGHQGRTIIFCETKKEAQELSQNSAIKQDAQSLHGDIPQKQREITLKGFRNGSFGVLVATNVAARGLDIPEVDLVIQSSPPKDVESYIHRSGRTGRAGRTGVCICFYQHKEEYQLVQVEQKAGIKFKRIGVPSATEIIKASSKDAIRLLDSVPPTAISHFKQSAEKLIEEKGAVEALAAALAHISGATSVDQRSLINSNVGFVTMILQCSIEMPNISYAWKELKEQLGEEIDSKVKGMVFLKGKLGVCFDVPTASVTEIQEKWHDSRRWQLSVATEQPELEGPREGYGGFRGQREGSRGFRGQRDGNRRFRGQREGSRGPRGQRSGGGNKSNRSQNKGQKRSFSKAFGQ

B1: Q2 RNA G-quadruplex (structured_RNA)
RNA: GUUGGGGCGGGCGUUGGGUUUGGGGGGACG
- Kd (DDX21ΔNC): 36.5 ± 2.7 nM
- Kd (DDX21Core): 62.5 ± 4.9 nM
- Kd (DDX21Fl monomer): 9.8 ± 0.9 nM
- Kd (DDX21ΔN): 7.6 ± 0.5 nM
